The values that follow come from publication PMC7689449.

Experiment [1] has as its target Sulfolobus islandicus type I-D Cas10d large subunit (Se-Met substituted, C-terminal His6) (Sulfolobus islandicus). Briefly: crystal structure; Se-Met Cas10d and AcrID1 mixed 1:2 (Cas10d:AcrID1), 75 °C for 1 min, complex isolated on Superdex 200 (30 mM Hepes-NaOH pH 7.5, 150 mM NaCl, 5 mM β-ME); crystals in 0.1 M Hepes pH 7.5, 4% PEG 8000, 5% ethylene glycol, 19 °C; SAD, 3.5 Å.

The target of experiment [2] is Sulfolobus islandicus rod-shaped virus 3 (SIRV3) anti-CRISPR protein AcrID1 (C-terminal His6) (Sulfolobus islandicus rod-shaped virus 3 (SIRV3)). The description is as above.

As a reminder, the stoichiometry N is a count of units in the complex or per binding partner. For “Sulfolobus islandicus rod-shaped virus 3 (SIRV3) anti-CRISPR protein AcrID1 (C-terminal His6) (natural protein)”, the stoichiometry N (AcrID1 per Cas10d) in experiment [1] was determined as 2. This substance also yielded a stoichiometry N in experiment [2] of 2.
